B1: OR4K15 (parent)
chain: GUUAACGGUCAUAGGCCAUGGAAACUAGGAGCACCAUUUCGCUGCCAGUGAAGAAAUGAACAAAGAAAAUCUGGGCCAGGCAGGCAUCAAAAGAAAUAGUCUUGCGCUCAACCAGAAAGUCUGUAAUCAUUUUAAGGGUA

Variants of: B1
Test: self-cleavage, relative activity (ratio to wild type); higher = more cleavage; in vitro, sequencing; the parent is a self-cleaving ribozyme

In order of rising self-cleavage:
1. GUUAACGGUCAUAGGCCAUGGAAACUAGGAGCACCAUUUCGCUGCCAGUGAAGAAAUGAACAAAGAAAAUCUGGGCCAGGCAGGCAUCAAAAGAAGUAGUCUUGCCCUCAACCAGAAAGUCUGUAAUCAUUUUAAGGGUA  0.02
2. GUUAACGGUCAUAGGCCAUGGAAACUAGGAGCACCAUUUCGCUGCCAGCGAAGAAAUGAACAAAGAAAAUCUGGGCCGGGCAGGCAUCAAAAGAAAUAGUCUUGCGCUCAACCAGAAAGUCUGUAAUCAUUUUAAGGGUA  0.2
3. GUUAACGGUCAUAGGCCAUGGAAACUAGGAGCACCAUUUCGCUGCCAGUGAAGAAGUGAACAAAGAAAAUCCGGGCCAGGCAGGCAUCAAAAGAAAUAGUCUUGCGCUCAACCAGAAAGUCUGUAAUCAUUUUAAGGGUA  0.28
4. GUUAACGGUCAUAGGCCAUGGAAACUAGGAGCACCAUUUCGCUGCCAGUGAAGAAAUGAACAAAGAAAAUCGGGGCCAGGCAGGCACCAAAAGAAAUAGUCUUGCGCUCAACCAGAAAGUCUGUAAUCAUUUUAAGGGUA  0.31
5. GUUAACGGUCGUAGGCCAUGGAAACUAGGAGCACCAUUUCGCUGCCAGUGAAGAAGUGAACAAAGAAAAUCUGGGCCAGGCAGGCAUCAAAAGAAAUAGUCUUGCGCUCAACCAGAAAGUCUGUAAUCAUUUUAAGGGUA  0.35
6. GUCAACGGUCAUAGGCCAUGGAAACUAGGAGCACCAUUUCGCUGCCAGUGAAGAAAUGAACAAAGAAAAUCUGGGCCAGGCAGGCCUCAAAAGAAAUAGUCUUGCGCUCAACCAGAAAGUCUGUAAUCAUUUUAAGGGUA  0.37
7. GUUAACGGUCAUAGGCCAUGGAAACUAGGAGCACCAUUUCGCUGCCAGUGAAGAAAUGAACAAAGAAAAUCUGUGCCAGGCAGGCAUCAAAAGGAAUAGUCUUGCGCUCAACCAGAAAGUCUGUAAUCAUUUUAAGGGUA  0.41
8. GUUAACGGUCAUAGGCCAUGGAAACUAGGAGCACCAUUUCGCUGCCAGUGAAGAAAUGAAUAAAGAAAAUCUGGGCCUGGCAGGCAUCAAAAGAAAUAGUCUUGCGCUCAACCAGAAAGUCUGUAAUCAUUUUAAGGGUA  0.43
9. GUUAACGGUCAUAGGCCAUGGGAACUAGGAGCACCAUUUCGCUGCCAGUGAAGAAAUGAACAAAGAAAAUCAGGGCCAGGCAGGCAUCAAAAGAAAUAGUCUUGCGCUCAACCAGAAAGUCUGUAAUCAUUUUAAGGGUA  0.49
10. GUUAACGGUCAUAGGCCAUGGAAACUAGGAGCACCAUUUCGCUGCCAGUGAAGAAAUGAACAAAGAAAAUCUGGGCCAGGCAGGCAUCAAAAGAAGUCGUCUUGCGCUCAACCAGAAAGUCUGUAAUCAUUUUAAGGGUA  0.63
11. GAUAACGGUCAUAGGCCAUGGAAACUAGGAGCACCAUUUCGCUGCCAGUGAAGAAAUGAACAAAGAAAAUCUGGGCCAGGCAGGCAUCAAAAGAAAUAGUCUUGCGCUCAACCAGAAAGUCUGUAAUCGUUUUAAGGGUA  0.66
12. GUUAACGGUCAUAGGCCAUGGAAACUAGGAGCACCAUUUCGCUGCCAGUGAAGAGAUGAACAAAGAAAAUCUGGGCCAGGCAGGCAUCAAAAGAAAUAGUCUUGCGCUCAACCAGAAAGUCUGUAACCAUUUUAAGGGUA  0.82
13. GUUAACGGUCAUGGGCCAUGGAAACUAGGAGCACCAUUUCGCUGCCAGUGAUGAAAUGAACAAAGAAAAUCUGGGCCAGGCAGGCAUCAAAAGAAAUAGUCUUGCGCUCAACCAGAAAGUCUGUAAUCAUUUUAAGGGUA  0.84
14. GUUAACGGUCAUAGGCCAUGGAAACUAGGAGCACCAUUUCGCUGCCAGUGUAGAAAUGAACAAAGAAAAUCUGGGCCAGGCAGGCAUCAGAAGAAAUAGUCUUGCGCUCAACCAGAAAGUCUGUAAUCAUUUUAAGGGUA  0.91
15. GUUAACGGUUAUAGGCCAUGGAAACUAGGAGCACCAUUUCGCUGCCAGUGAAGAAAUGAACAAAGAAAAUCUGGGCUAGGCAGGCAUCAAAAGAAAUAGUCUUGCGCUCAACCAGAAAGUCUGUAAUCAUUUUAAGGGUA  0.98
16. GUUAACGGUCAUAGGCCAUGGAAACUAGGAGUACCAUUUCGCUGCCAGUGAAGAAAUGAACAAAGAAAAUCUGGGCCAGGCAGGCAUCAAAAGAAGUAGUCUUGCGCUCAACCAGAAAGUCUGUAAUCAUUUUAAGGGUA  0.99
17. GUUAACGGUCAUAGGCCAUGGAAACUAGGAGCACUAUUUCGCUGCCAGUGAAGAAAUGAACAAAGAAAAUCUGGGCCAGGCAGGCAUCAAAAGAAAUAGUCUUGCGCUCAACCAGAAAGUCUGUAAUCAUAUUAAGGGUA  1.01
18. GUUAACGGUCAUAGGCCAUGGAAACUAGGAGCACCAUUUCGCUGCCAGUGAAGAAAUGAACGAAGAAAAUCUGGGCCAGGCAGGCAUCAAAAGAAAUAGUCUUGCGCUCAACCAGAAAGUCAGUAAUCAUUUUAAGGGUA  1.07
19. GUUAACGGUCAUAGGCCAUGGAAACUAGGAGCACCAUUUCGCUGCCAGCGAAGAAAUGAACAAAGAAAAUCUGGGCCAGGCAGGCAUCAAAAGAAAUAGUCUUGCGCUCAACCAGAUAGUCUGUAAUCAUUUUAAGGGUA  1.08
20. GUUAACGGUCUUAGGCCAUGGAAACUAGGAGCACCAUUUAGCUGCCAGUGAAGAAAUGAACAAAGAAAAUCUGGGCCAGGCAGGCAUCAAAAGAAAUAGUCUUGCGCUCAACCAGAAAGUCUGUAAUCAUUUUAAGGGUA  1.2
21. GUUAACGGUCAUAGGCCAUGGAAACUAGGAGCACCAUUUCGCUGCCAGUGAAGAAAUGAACAAAGUAAAUCUGGGCCAGGCAGGCAUCAAAAGAAAUAGUCUUGCGCUCAACCAGAAAGUCUGUAAUCACUUUAAGGGUA  1.34
22. GUUAACGGUCAUAGGCCAUGGAAACUAGGAGCACCAUUUCGCUGCCAGUGAAGAAAUGAACAAAGAAGUUCUGGGCCAGGCAGGCAUCAAAAGAAAUAGUCUUGCGCUCAACCAGAAAGUCUGUAAUCAUUUUAAGGGUA  1.38
23. GUUAACGGUCAUAGGCCAUGGAAACUAGGGGCACCAUUUCGCCGCCAGUGAAGAAAUGAACAAAGAAAAUCUGGGCCAGGCAGGCAUCAAAAGAAAUAGUCUUGCGCUCAACCAGAAAGUCUGUAAUCAUUUUAAGGGUA  1.39
24. GUUAACGGUCAUAGGCCAUGGAAACUAGGAGCAUCAUUCCGCUGCCAGUGAAGAAAUGAACAAAGAAAAUCUGGGCCAGGCAGGCAUCAAAAGAAAUAGUCUUGCGCUCAACCAGAAAGUCUGUAAUCAUUUUAAGGGUA  1.5
25. GUUAACGGUCAUAGGCCAUGGUUACUAGGAGCACCAUUUCGCUGCCAGUGAAGAAAUGAACAAAGAAAAUCUGGGCCAGGCAGGCAUCAAAAGAAAUAGUCUUGCGCUCAACCAGAAAGUCUGUAAUCAUUUUAAGGGUA  1.59
26. GUUAUCGGUCAUAGGCCAUGGAAACUAGGAGCACCAUUUCGCUGCCAGUGAAGAAAUGAACAAAGAAAAUCUGGGCCAGGCAGGCAUCAAAAGAAAUAGCCUUGCGCUCAACCAGAAAGUCUGUAAUCAUUUUAAGGGUA  1.64
27. GUUAACGGUCAUAGGCCAUGGAAACUAGGAGCACCAUUUCGCUGCCAGUGAAGAAAUGAACAGAGAAAAUCUGGGCCAGGCAGGCAUCAAAAGAAAUAGUCUUGCGCUCAACCAGAAAGUCUGUAAUCAUUCUAAGGGUA  1.67
28. GUUAACGGUCAUAGGCCAUGGAAACUAGGAGUACCAUUUCGCUGCCAGUGAGGAAAUGAACAAAGAAAAUCUGGGCCAGGCAGGCAUCAAAAGAAAUAGUCUUGCGCUCAACCAGAAAGUCUGUAAUCAUUUUAAGGGUA  1.73
29. GUUAACGGUCAUAGGCCAUGGAAACUAGGAGCACCAUUUCGCUGCCAGUGAAGAAAUGAACAAAGAAAAUCUGGGCCAGGCAGGCAUCGAAAGAAAUAGUCUUGCGCUCAACCAGAGAGUCUGUAAUCAUUUUAAGGGUA  1.73
30. GUUAACGGUCAUAGACCAUGGAAACUAGGAGCACCAUUUCGCUGCCAGUGUAGAAAUGAACAAAGAAAAUCUGGGCCAGGCAGGCAUCAAAAGAAAUAGUCUUGCGCUCAACCAGAAAGUCUGUAAUCAUUUUAAGGGUA  1.78
31. GUUAACGGUCAUAGGCCAUGGAAACUAGGAGCACCAUUUCGCUGCCAGUGAAGAAACGAACAAAGAAAAUCUGGGCCAGGCAGGCAUCAAAAGAAAUAGUCUUGCGCUCAACCAGAAAGUCUGUAAUCAUUUUAAGGGUU  1.78
32. GUUAACGGUCAUAGGCCAUGGAAACUAGGAGCACCAUUUCGCUGCCAGUGAAGAAGUGAACAAAGAAAAUCUGGGCCAGGCAGGCAUCAUAAGAAAUAGUCUUGCGCUCAACCAGAAAGUCUGUAAUCAUUUUAAGGGUA  1.83
33. GUUAACGGUCAUAGGCCAUGGAAACUAGGAGCACCAUUUCGCUACCAGUGAAGAAAUGAACAAAGAAAAUCUGGGCCAGGCAGGCAUCAAAAGAAAUAGUCUUGCGCUCAACCAGAAAGUCUGUAAUCAUUUUGAGGGUA  1.84
34. GUUAACGGUCAUAGGCCAUGGAAACUAGGAGCACCAUUUCGCUGCUAGUGAAGAAAUGAACAAAGAAAAUCUGGGCCAGGCAGGCAUCAAAAGAAAUAGUCCUGCGCUCAACCAGAAAGUCUGUAAUCAUUUUAAGGGUA  1.84
35. GUUAACGGUCAUAGGCCAUGGAAACUAGGAGCACCAUUUCGCUGCCAGUGAAGAAAUGUACAAAGAAAAUCUGGGCCAGGCAGGCAUCAAAAGAGAUAGUCUUGCGCUCAACCAGAAAGUCUGUAAUCAUUUUAAGGGUA  1.85
36. GUUAACGGUCAUAGGCCAUGGAAACUAGGAGCACCAUUUCGCUGCCAGUGAAGAAAUGAACAAAGAAAAUCUGGGCCAGGCAGGCAUCAAAAGAGAUAGUCUUGCGCUCAACCAGAAAGUCUGUAAUCAUUUUGAGGGUA  1.89
37. GUUAACGGUCAUAGGCCGUGGAAACUAGGAGCACCAUUUCGCUGCCAGUGAAGAAAUGAACAAUGAAAAUCUGGGCCAGGCAGGCAUCAAAAGAAAUAGUCUUGCGCUCAACCAGAAAGUCUGUAAUCAUUUUAAGGGUA  1.92
38. GUUAACGGUCAUAGGCCAUGGAAACUAGGAGCACCAUUUCGCUGCCAGUGAAGAAAUGAACAAAGAAAAUCUGGGCCAGGCAGGCAUCGAAAGAAAUAGCCUUGCGCUCAACCAGAAAGUCUGUAAUCAUUUUAAGGGUA  2
39. GUUAACGGUCAUAGGCCACGGAAACUAGGAGCACCAUUUCGCUGCCAGUGAAGAAAUGAACAAAGAAAAUCUGGGCCAGGCAGGCAUAAAAAGAAAUAGUCUUGCGCUCAACCAGAAAGUCUGUAAUCAUUUUAAGGGUA  2.03
40. GUUAACGGUCAUAGGCCAUGGAAACUAGGAGCACCAUUUCGCUGCCAGUGAAGAAAUGAACAAAGAAAGUCUGGGCCAGGCAGGCAUCAAAAGAAAUAGUCCUGCGCUCAACCAGAAAGUCUGUAAUCAUUUUAAGGGUA  2.06
41. GUUAACGGUCAUAGGCCAUGGAAACUAGGAGCUCCAUUUCGCUGCCAGUGAAGAAAUGAACAAAGAAAAUCUGGGCCAGGCAGGCAUCAAAAGUAAUAGUCUUGCGCUCAACCAGAAAGUCUGUAAUCAUUUUAAGGGUA  2.41
